B1: F*-p40 (peptide)
chain: APTYSPPPPP

Experiments:
Experiment in all cases: fluorescence anisotropy
Src SH3 84-145 = Src SH3 84-145 (Homo sapiens, UniProt P12931)
F*-p40 = molecular target: B1
F*-PLLP = molecular target: T1, F*-PLLP
T1 chain: LASRPLPLLP

## B1
Src SH3 84-145
  Kd: > 1000 µM

B2: SrcAbl SH3 84-145 (protein)
chain: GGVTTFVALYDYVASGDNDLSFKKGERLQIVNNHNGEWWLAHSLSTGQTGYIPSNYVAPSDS
F*-p40
  Kd: 130 µM
F*-PLLP
  Kd: 140 µM

B3: AblSrc SH3 SH3 (protein)
chain: PSENDPNLFVALYDFESRTETTLSITKGEKLRVLGYNTEGDWCEAQTKNGQGWVPSNYITPVNSLEK
F*-p40
  Kd: 210 µM
F*-PLLP
  Kd: > 1000 µM
